Data as given in the DeepSol protein solubility set.

experiment: soluble on expression in E. coli; label from the status in PepcDB or PDB records

Soluble on expression in E. coli, not soluble:
MSTASGITMASMSTYAILGCGSVGHAVAEELVEEGKDVLILDADEGRVEALRDQDLNAQQADICETDVAQTVADRDVVLIMSPDVNANAEAVRNIRESGGEQFIVARADDPVSADDLTELGADVVINPSAVIADSALRALETGELEYKASQLGDVIDGTEERMAILIHRSPDPDSIASAAALRAIAASRDVDADIIYEGEIGHQENRAFVNLLGIELTSNEDVNLDEYDTFALVDVAKGGEPAVESVDIVIDHYEHEHELEHDAAFSDIRPNISATSTILTKYIQELDLNLDQSVATALLYGIRAETLDFKRDTTPADLTAAAYLYPFADHDTLEQVESPSMSPETLDVLAEAIRNREVQGSHLVSNAGFIRDRDALAQAAQHLLNLEGITTTAVFAIADDTIYLAARSKDIRMNIGKVLSDAFGGMGETAGHSTDASVEIPLGIFTGLDTSDDNRDTLLELTEEAVKRKLFEAMGVDSSSSESSNGN
MSTEQPERADRLLAAAQRRGHERVEARDFGEAILAEVHCPRYLDFLKNGYAQWRALPGASQEITPHVHPPREESGYPVSIIGRAGFHIADTSSPMGPHTWEAALAASHSACTAAQLVIEGAPAAYSLSRPPGHHATRDRAGGFCFLNHTAVAAQWLRHHVARVAILDVDVHHGNGTQDIFYERDDVLHVSLHADPAYFYPFFTGYAQETGRGIGAGCNLNLPLPIGTDDEAFLAALRIACRRVLDFKPDVVVVALGLDTYEGDPLNAFRITTPGFARIGQAIAGLALPTVLVQEGGYLSDELGENLATFLDGFCQHLEHHHHHH
MSTFKITIIGGGSSYTPELVDGLIQRIEQLPVTELALVDVEQGRQKVEIIAALTQRMLARHGLEQVKVSVHYSLDEAIRGARFVLTQFRVGQLPARAADERLGLKYNLLGQETTGIGGFAKALRTIPVMLDIAANVERLAPDAWIINFTNPAGIVTEAVSRYTKAKIIGLCNVPISMHHMIAKLLQAPYEDLQLRFAGLNHMVWVHEVLQRGKYVTADVLKMLCDGASLSMNNIKEAPWPPEFLQAMGAIPCPYHRYFYQTQDMLAEEMAAAAERGTRAEQVMQVEKELFALYADPHLDTKPEQLSFRGGSFYSEVALELIRAIHNNLGTQLVVNTTNRGAIRGLSDDSVVETNCIIDAKGAHPLTFGPLPVSMHGLTQQVKAYERLTIDAAVHGDRRSALLALVTNPLIANASIAQPLLEEVLQVNKPYLPQFSGL
MSTFKPLKILASRRQVLKAGLAAMTLSGVASQVSAKEQPLKTSNGHSKPAAKKAGGRRIVMLDPGHGGIDTGAIGHNGSKEKHVVLAIAKNVRSILRSNGIDARLTRTGDTFIPLYDRVEIAHQHGADLFMSIHADGFTNPSAAGASVFALSNRGASSAMAKYLSDRENRADEVAGKKATDKDHLLQQVLFDLVQTDTIKNSLTLGSHILKKIKPVHKLHSRNTEQAAFVVLKSPSIPSVLVETSFITNPNEEKLLGTTAFRQKIATAIANGIISYFHWFDNQKAHSKRR

Soluble on expression in E. coli, soluble:
MSSTLAKIAEIEAEMARTQKNKATAHHLGLLKARLAKLRRELITPKGGGGGGPGEGFDVAKTGDARIGFVGFPSVGKSTLLSNLAGVYSEVAAYEFTTLTTVPGVIRYKGAKIQLLDLPGIIEGAKDGKGRGRQVIAVARTCNLILIVLDVLKPLGHKKIIENELEGFGIRLNSKPPNIGFKKKDKGGINLTATCPQSELDAETVKSILAEYKIHNADVTLRSDATADDLIDVVEGNRVYIPCIYVLNKIDQISIEELDIIYKVPHCVPISAHHRWNFDDLLEKIWDYLKLVRIYTKPKGQLPDYTSPVVLPYSRTTVEDFCMKIHKNLIKEFKYALVWGLSVKHNPQKVGKDHTLEDEDVIQIVKK
MSTATRPSSSATTSVILENPVSQSQPTERLVLRLNRKKKKVSWKDGTVDNEFMQKKSSKKCCIFHKQKPFDEDDSEEEDDNNHHCDHNHEHSESGEASSSNDSKAVDMGHHHHHHSH
MSTFKPLKTLTSRRQVLKAGLAALTLSGMSQAIAKDELLKTSNGHSKPKAKKSGGKRVVVLDPGHGGIDTGAIGRNGSKEKHVVLAIAKNVRSILRNHGIDARLTRSGDTFIPLYDRVEIAHKHGADLFMSIHADGFTNPKAAGASVFALSNRGASSAMAKYLSERENRADEVAGKKATDKDHLLQQVLFDLVQTDTIKNSLTLGSHILKKIKPVHKLHSRNTEQAAFVVLKSPSVPSVLVETSFITNPEEERLLGTAAFRQKIATAIAEGVISYFHWFDNQKAHSKKR
